# Data: patent publication US20210017275A1 (Alector, published 2021)
# T1: Human Siglec 5, Fc chimera (R&D Systems) (human, UniProt O15389 17-434, limits assumed)
# T1 construct: Bought or recombinant Fc fusion; also called recombinant Siglec-5-Fc; not shown: Fc part
# T1 sequence: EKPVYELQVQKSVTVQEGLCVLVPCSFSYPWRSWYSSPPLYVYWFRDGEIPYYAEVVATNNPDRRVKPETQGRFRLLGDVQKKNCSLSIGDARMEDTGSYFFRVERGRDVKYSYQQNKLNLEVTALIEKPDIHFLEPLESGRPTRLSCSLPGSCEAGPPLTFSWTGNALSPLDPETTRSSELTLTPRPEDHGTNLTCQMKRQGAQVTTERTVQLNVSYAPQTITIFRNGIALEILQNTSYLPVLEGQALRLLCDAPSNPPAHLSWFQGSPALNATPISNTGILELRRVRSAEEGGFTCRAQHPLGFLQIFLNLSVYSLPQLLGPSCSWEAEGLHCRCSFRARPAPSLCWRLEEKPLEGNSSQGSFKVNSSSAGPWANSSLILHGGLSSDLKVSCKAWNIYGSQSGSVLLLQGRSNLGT
# T2: human Siglec-5 expressed on human primary cells (human, UniProt O15389 17-551)
# T2 construct: Endogenous receptor on human primary monocytes, dendritic cells, macrophages and neutrophils; also called CD170
# T2 sequence: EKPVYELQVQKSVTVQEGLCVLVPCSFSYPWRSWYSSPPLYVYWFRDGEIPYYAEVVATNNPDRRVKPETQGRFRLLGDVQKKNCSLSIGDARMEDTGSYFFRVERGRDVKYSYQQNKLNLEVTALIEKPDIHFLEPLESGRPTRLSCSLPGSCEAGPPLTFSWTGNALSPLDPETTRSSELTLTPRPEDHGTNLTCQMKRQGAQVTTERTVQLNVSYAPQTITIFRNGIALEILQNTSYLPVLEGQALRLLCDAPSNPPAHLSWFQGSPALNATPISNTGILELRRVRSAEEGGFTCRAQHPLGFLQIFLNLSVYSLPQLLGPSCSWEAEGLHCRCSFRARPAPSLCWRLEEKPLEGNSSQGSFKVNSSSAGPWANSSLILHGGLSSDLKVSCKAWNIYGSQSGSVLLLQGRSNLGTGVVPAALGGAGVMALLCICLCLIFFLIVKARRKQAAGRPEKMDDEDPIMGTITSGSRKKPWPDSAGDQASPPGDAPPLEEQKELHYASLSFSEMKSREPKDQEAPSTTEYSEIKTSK
# T3: Histidine-tagged human Siglec-5 (NovoProtein) (human, UniProt O15389 17-434, limits assumed)
# T3 construct: Bought protein; also called Siglec-5-his tagged protein; not shown: histidine tag
# T3 sequence: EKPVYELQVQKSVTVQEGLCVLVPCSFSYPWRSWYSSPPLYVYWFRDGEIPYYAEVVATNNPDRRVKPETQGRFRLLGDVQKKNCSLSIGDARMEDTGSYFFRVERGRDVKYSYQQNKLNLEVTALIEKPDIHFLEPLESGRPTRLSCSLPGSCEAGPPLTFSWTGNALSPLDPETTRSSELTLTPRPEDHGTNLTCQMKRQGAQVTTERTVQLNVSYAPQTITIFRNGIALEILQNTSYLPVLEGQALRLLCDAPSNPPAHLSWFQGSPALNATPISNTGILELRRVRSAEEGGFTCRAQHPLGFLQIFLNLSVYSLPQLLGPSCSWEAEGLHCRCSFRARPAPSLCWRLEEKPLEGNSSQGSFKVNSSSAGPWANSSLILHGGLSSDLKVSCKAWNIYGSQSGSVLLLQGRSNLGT
# Experiments:
# [1] = target: T1, Human Siglec 5, Fc chimera (R&D Systems); experiment: RBC adhesion to plate-bound Siglec-5-Fc, 1.0 ug/ml isotype control, percent of binding without antibody
# [2] = target: human Siglec-5 expressed on human primary cells (human) (UniProt O15389); experiment: flow cytometry, human primary neutrophils, isotype control
# [3] = target: human Siglec-5 expressed on human primary cells (human) (UniProt O15389); experiment: flow cytometry, human primary macrophages, isotype control
# [4] = target: human Siglec-5 expressed on human primary cells (human) (UniProt O15389); experiment: flow cytometry, human primary monocytes, isotype control
# [5] = target: T1, Human Siglec 5, Fc chimera (R&D Systems); experiment: RBC adhesion to plate-bound Siglec-5-Fc, 0.3 ug/ml isotype control, percent of binding without antibody
# [6] = target: human Siglec-5 expressed on human primary cells (human) (UniProt O15389); experiment: flow cytometry, human primary dendritic cells, isotype control
# [7] = target: human Siglec-5 expressed on human primary cells (human) (UniProt O15389); experiment: flow cytometry, human primary neutrophils, 10 ug/ml mAb
# [8] = target: human Siglec-5 expressed on human primary cells (human) (UniProt O15389); experiment: flow cytometry, human primary macrophages, 10 ug/ml mAb
# [9] = target: T1, Human Siglec 5, Fc chimera (R&D Systems); experiment: RBC adhesion to plate-bound Siglec-5-Fc, 0.3 ug/ml mAb, percent of binding without antibody
# [10] = target: human Siglec-5 expressed on human primary cells (human) (UniProt O15389); experiment: flow cytometry, human primary dendritic cells, 10 ug/ml mAb
# [11] = target: human Siglec-5 expressed on human primary cells (human) (UniProt O15389); experiment: flow cytometry, human primary monocytes, 10 ug/ml mAb
# [12] = target: human Siglec-5 expressed on human primary cells (human) (UniProt O15389); experiment: flow cytometry, human primary neutrophils, secondary antibody only (no primary antibody), background control
# [13] = target: human Siglec-5 expressed on human primary cells (human) (UniProt O15389); experiment: flow cytometry, human primary monocytes, secondary antibody only (no primary antibody), background control
# [14] = target: human Siglec-5 expressed on human primary cells (human) (UniProt O15389); experiment: flow cytometry, human primary macrophages, secondary antibody only (no primary antibody), background control
# [15] = target: human Siglec-5 expressed on human primary cells (human) (UniProt O15389); experiment: flow cytometry, human primary dendritic cells, secondary antibody only (no primary antibody), background control
# [16] = target: T1, Human Siglec 5, Fc chimera (R&D Systems); experiment: RBC adhesion to plate-bound Siglec-5-Fc, 1.0 ug/ml mAb, percent of binding without antibody
# Experimental: Siglec-5 antibodies (0.3 μg/ml or 1.0 μg/ml) were bound for one hour at RT with gentle rocking. After removal of unbound antibody, red blood cells were added to each well at a concentration of 3.0 ×10⁶ cells per ml and incubated at RT for one hour. Unbound RBCs were then carefully washed off 3X with PBS, and water was added to each well for hypotonic lysis of bound RBCs. The plate was transferred to -80° C. for 10 minutes, followed by 37° C. for 15 minutes. Bound RBCs were detected by peroxidase activity, followed by 2N sulfuric acid to stop the reaction.
# [17] = target: T2, human Siglec-5 expressed on human …; experiment: flow cytometry, human primary macrophages, 10 ug/ml mAb
# Experimental: (§1) Initial characterization of Siglec-5 antibodies involved determining their ability to bind Siglec-5 expressed on human primary monocytes, human primary macrophages, human primary dendritic cells, and human primary neutrophils. Cells were harvested, plated at 10⁶1m1 in a 96 well plate, and incubated in 100 μl PBS containing 2% FBS, 2 mM EDTA and 10 μg/ml Mab and Fc blocking reagent for 1 hour in ice. […] Cells were washed twice in cold PBS and analyze by flow cytometry on a BD FACS Canto. Data analysis and calculation of MFI values was performed with FlowJo (TreeStar) software version 10.0.7.
# (§2) Binding is compared to an isotype control.
# [18] = target: T2, human Siglec-5 expressed on human …; experiment: flow cytometry, human primary monocytes, 10 ug/ml mAb
# Experimental: as §1, §2
# [19] = target: T2, human Siglec-5 expressed on human …; experiment: flow cytometry, human primary neutrophils, 10 ug/ml mAb
# Experimental: as §1, §2
# [20] = target: T2, human Siglec-5 expressed on human …; experiment: flow cytometry, human primary dendritic cells, 10 ug/ml mAb
# Experimental: as §1, §2
# [21] = target: T3, Histidine-tagged human Siglec-5 …; experiment: SPR (BiaCore T200, 25 C), mAb captured on anti-mouse IgG, 15 nM His-tagged Siglec-5, single-concentration 1:1 fit
# Experimental: The binding affinity of each anti-Siglec-5 antibody was determined by measuring their KD by surface plasmon resonance (SPR) assays. SPR data was collected at a rate of 10 Hz at 25° C. on a BiaCore T200 instrument. Data analysis was performed using BiaCore T200 Evaluation
# Histidine-tagged human Siglec-5 (NovoProtein) was then flowed over the captured anti-Siglec-5 surface (120 s contact time, 30 4/min flow rate, 300 s dissociation time). […] Duplicate single-concentration trials were performed and bracketed by a blank (0 nM antigen) sample. The chip surface was regenerated in between cycles using 10 mM glycine-HCl, pH 1.7 (60 s contact time, 30 4/min flow rate, 60 s stabilization time). The resulting SPR signal was obtained as the difference in response from measurements performed on a blank flow cell.
# Affinity constants (KD) were calculated from the ratio kd/kₐ.
Percent RBC Binding to Siglec-5 [1],Percent RBC Binding to Siglec-5 [9],Percent RBC Binding to Siglec-5 [16],% Positive [17],MFI [17],% Positive [18],MFI [18],% Positive [19],MFI [19],% Positive [20],MFI [20],Kd [21],Molecule,further results
102%,,,,,,,,,,,,mouse IgG1 isotype control antibody,% Positive [2]: 1.3%; MFI [2]: 53.7; % Positive [3]: 21.9%; MFI [3]: 305; % Positive [4]: 10.7%; MFI [4]: 126; Percent RBC Binding to Siglec-5 [5]: 100%; % Positive [6]: 6.7%; MFI [6]: 98
94.4%,,,,,,,,,,,,mouse IgG2b isotype control antibody,
94.5%,,,,,,,,,,,,mouse IgG2a isotype control antibody,
,41.5%,,,,,,,,,,,"commercially available anti-Siglec-5 antibody, clone 194128 (R&D Systems)",% Positive [7]: 99.2%; MFI [7]: 383; % Positive [8]: 96.9%; MFI [8]: 806; % Positive [10]: 94.8%; MFI [10]: 641; % Positive [11]: 98.8%; MFI [11]: 463
,,,,,,,,,,,,PE-conjugated secondary antibody,% Positive [12]: 3.42%; MFI [12]: 62.1; % Positive [13]: 8.2%; MFI [13]: 104; % Positive [14]: 5.4%; MFI [14]: 221; % Positive [15]: 2.1%; MFI [15]: 87
,19%,8%,83%,457,98%,398,89%,219,85.7%,349,229 pM,"anti-Siglec-5 monoclonal antibody 8A1 (antibody, IgG1, V domains shown) VH: EIQLQQSGPELVKPGASVKVSCKASDYAFTSYNIYWVKQSHGKSLEWIGYIDPYNGGTSYNQTFKGKATLTVDKSSSTAYMHLNSLTSEDSAVYYCAMKVGYEAMDYWGQGTSVTVSS VL: DIVMTQSQKFMSTSVGDRVSVTCKASQNVGTYVAWYQQKPGQSPKALIYSASYRYSGVPDRFTGSGSGTDFTLNISNVQSEDLAEYFCQQFNSYPYTFGGGTKLEIK",
,38.5%,6.17%,84.1%,444,95.5%,376,97.8%,367,86%,377,569 pM,"anti-Siglec-5 monoclonal antibody 11H3 (antibody, IgG1, V domains shown) VH: QVQLQQSGPELVKPGASVKVSCKASDYAFTSYNIYWVKQSHGKSLEWIGYIDPYNGGTSYNQTFKGKATLTVDKSSSTAYMHLNSLTSEDSAVYYCAMKVGYEAMDYWGQGTSVTVSS VL: DIQMTQSQKFMSTSVGDRVSVTCKASQNVGTNVAWYQQKPGQSPKALIYSASYRYSGVPDRFTGSGSGTDFTLNISNVQSEDLAEYFCQQFNSYPYTFGGGTKLEIK",
,24.2%,5.36%,92%,490,94.8%,377,96%,320,94.9%,512,43 pM,"anti-Siglec-5 monoclonal antibody 8C3 (antibody, IgG1, V domains shown) VH: QVQLQQSGGGLVKPGTSVKLSCKASGYIFTEYIIHWVKQRSGQGLEWIGWFYPGIISIKYNEKFKDKATLTADKSSSTVYMELSRLTSEDSAVYFCAGHEGYDGAMDYWGQGTSVTVSS VL: DVLMTQTPLSLPVSLGDQASISCRCSQSIVHSNGNTYLEWYLQKPGQSPKLLIYRVSNRFSGVPDRFSGSGSGTDFTLKISRVEAEDLGVYYCFQGSHVPWTFGGGTKLEIK",
,47.5%,5.59%,87.8%,471,93.2%,368,98.6%,332,93.9%,591,408 pM,"anti-Siglec-5 monoclonal antibody 9A5 (antibody, IgG1, V domains shown) VH: QVQLQQSGPELVEPGASVKVSCKASGYAFTSYNMYWVKQSHGKSLEWIGYIDPYNGGTYYDQKFKGRATLTVDKSSSTAHMHLNSLTSEDSAVYYCVFFYEYDGFPYWGQGTLVTVSA VL: DIVLTQSPTLMSASPGEKVTMTCSASSSVSYMYWYQQKPRSSPKPLIYLTSNLASGVPARFSGSGSGTSYSLTISSMEAEDAATYYCQQWSSNPLTFGAGTKLELK",
,31.8%,6.73%,91.8%,569,97.3%,368,87.4%,207,90.7%,459,81 pM,"anti-Siglec-5 monoclonal antibody 2G5 (antibody, IgG1, V domains shown) VH: EIQLQQSGPELVKPGASVKVSCKASGYSFTDYNMYWVKQSHGKSLEWIGYIDPYNGNTTYNQRFKGKATLTVDKSSSTAFMHLNSLTSEDAAVYYCATFYGFDGFAYWGQGSLVAVSA VL: QAVVTQESALTTSPGETVTLTCRSSTGAVTTSNYANWVQEKPDHLFTGLIGTTNNRAPGVPARFSGSLIGDKAALTITGAQTEDEAIYFCALWYSNHLVFGGGTKLTVLG",
